Measurements published in article PMC4683259.
Each block holds one substance with its values, some of them ahead of it.

How the values were obtained:
[1] = target: KV10.1 voltage-gated potassium channel, full-length form (E100) (human) (UniProt O95259)
[2] = target: KV10.1 voltage-gated potassium channel, full-length form (E100) (human) (UniProt O95259); remark: listed apart in the source
[3] = target: KV10.1 voltage-gated potassium channel, full-length form (E100) (human) (UniProt O95259); remark: listed apart in the source

Sequence of UniProt O95259 (O95259 whole entry): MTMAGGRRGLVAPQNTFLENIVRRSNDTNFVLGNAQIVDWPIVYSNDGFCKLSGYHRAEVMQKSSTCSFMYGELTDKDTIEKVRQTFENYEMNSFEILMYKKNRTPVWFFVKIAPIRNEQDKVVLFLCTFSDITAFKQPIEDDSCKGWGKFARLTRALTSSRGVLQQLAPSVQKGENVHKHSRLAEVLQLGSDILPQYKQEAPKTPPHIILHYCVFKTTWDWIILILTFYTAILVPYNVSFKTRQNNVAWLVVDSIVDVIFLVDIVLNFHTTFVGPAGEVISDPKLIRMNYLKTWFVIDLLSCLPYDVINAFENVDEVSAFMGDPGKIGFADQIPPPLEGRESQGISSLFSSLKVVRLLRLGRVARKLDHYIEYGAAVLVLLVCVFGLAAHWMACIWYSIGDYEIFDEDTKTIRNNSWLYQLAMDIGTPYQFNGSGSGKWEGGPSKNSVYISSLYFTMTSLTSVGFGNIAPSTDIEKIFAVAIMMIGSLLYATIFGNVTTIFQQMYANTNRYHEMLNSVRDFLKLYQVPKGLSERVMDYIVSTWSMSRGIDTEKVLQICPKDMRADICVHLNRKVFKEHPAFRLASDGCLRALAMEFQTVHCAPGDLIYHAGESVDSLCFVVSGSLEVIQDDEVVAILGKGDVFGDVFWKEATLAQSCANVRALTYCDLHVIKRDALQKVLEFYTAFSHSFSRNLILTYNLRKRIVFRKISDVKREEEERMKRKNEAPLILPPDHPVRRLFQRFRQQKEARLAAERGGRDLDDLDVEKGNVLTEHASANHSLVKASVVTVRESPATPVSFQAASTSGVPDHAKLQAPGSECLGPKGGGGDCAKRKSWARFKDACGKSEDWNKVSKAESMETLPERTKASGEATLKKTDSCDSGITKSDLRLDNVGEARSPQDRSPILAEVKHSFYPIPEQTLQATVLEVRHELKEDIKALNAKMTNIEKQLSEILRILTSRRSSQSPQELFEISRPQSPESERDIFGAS

reduction of KV10.1 current, whole-cell patch clamp, HEK293 cells stably expressing KV10.1 and transfected with E70mVenus (control mVenus alone) [1]: 53.8%
reduction of KV10.1 current, two-electrode voltage clamp, Xenopus oocytes co-injected with E70 and KV10.1 cRNA at a 1:10 ratio (E70 from pSGEM, no mVenus) [2]: 60%
Substance: E70mVenus (KV10.1 splice variant E70 fused to mVenus) (natural protein)

reduction of KV10.1 current density at +80 mV, whole-cell patch clamp, HEK-KV10.1 cells transfected with E70^L556YmVenus [3]: 45.3%
Substance: E70^L556YmVenus (TCC-defective E70 fused to mVenus) (natural protein)

reduction of KV10.1 current, whole-cell patch clamp, HEK293 cells stably expressing KV10.1 and transfected with E65mVenus (control mVenus alone) [1]: 41.7%
reduction of KV10.1 current, two-electrode voltage clamp, Xenopus oocytes co-injected with E65 and KV10.1 cRNA at a 1:10 ratio (E65 from pSGEM, no mVenus) [2]: 85%
Substance: E65mVenus (KV10.1 splice variant E65 fused to mVenus) (natural protein)

reduction of KV10.1 current amplitude, whole-cell patch clamp, HEK-KV10.1 cells transfected with E65^L405YmVenus (not statistically significant) [3]: 20.8%
Substance: E65^L405YmVenus (TCC-defective E65 fused to mVenus) (natural protein)
